Target: apo-CA-HNifU (N-terminal His-tagged NifU with cysteines 35, 62, 106, 272 and 275 mutated to alanine, core cluster removed) (A. vinelandii) (UniProt P05340)
Sequence of UniProt P05340 (P05340 other isoform, or with tags, fused parts or gaps, change not shown): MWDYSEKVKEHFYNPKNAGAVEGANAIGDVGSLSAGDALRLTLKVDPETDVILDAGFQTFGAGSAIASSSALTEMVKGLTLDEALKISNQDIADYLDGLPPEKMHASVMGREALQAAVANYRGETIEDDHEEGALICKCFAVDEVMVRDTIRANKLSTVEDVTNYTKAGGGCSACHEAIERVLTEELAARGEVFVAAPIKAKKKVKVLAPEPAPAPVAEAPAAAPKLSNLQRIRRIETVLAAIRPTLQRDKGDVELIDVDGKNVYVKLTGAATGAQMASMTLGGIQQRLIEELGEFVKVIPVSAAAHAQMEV

iron transferred from GrxDS to EDTA-treated CA-HNifU (iron in the flowthrough NifU after incubation and separation in a Strep-column): 1 iron
iron transferred from GrxDS to urea-treated apo-CA-HNifU (iron in the flowthrough NifU after incubation and separation in a Strep-column): 1.8 irons
Substance: C-terminal Strep-tagged A. vinelandii GrxD (GrxDS) (natural protein)

From article PMC13382767
